The target of one assay is T1, human 4-1BB (human, UniProt Q07011 24-255).
T1 construct: whole, on cells; also called h4-1BB; CD137
Briefly: flow cytometry on CHOS-h4-1BB cells (overexpressing human 4-1BB), anti-human IgG-Fc PE.

A further assay has as its target T2, human FcγRIIb (human, UniProt P31994 43-310).
T2 construct: whole, on cells; also called hCD32b; CD32b
T2 sequence (looked up): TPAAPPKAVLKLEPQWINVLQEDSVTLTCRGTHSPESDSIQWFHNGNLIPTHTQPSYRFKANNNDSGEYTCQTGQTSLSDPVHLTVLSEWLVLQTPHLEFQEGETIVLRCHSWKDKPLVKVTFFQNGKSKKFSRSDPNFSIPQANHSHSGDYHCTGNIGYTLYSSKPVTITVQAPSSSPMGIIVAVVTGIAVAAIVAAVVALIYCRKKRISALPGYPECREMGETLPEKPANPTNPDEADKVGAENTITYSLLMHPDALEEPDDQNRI
Briefly: flow cytometry on CHOS-hCD32b cells (overexpressing human FcγRIIb), anti-human IgG-Fc PE.

T1 sequence (Q07011 24-255): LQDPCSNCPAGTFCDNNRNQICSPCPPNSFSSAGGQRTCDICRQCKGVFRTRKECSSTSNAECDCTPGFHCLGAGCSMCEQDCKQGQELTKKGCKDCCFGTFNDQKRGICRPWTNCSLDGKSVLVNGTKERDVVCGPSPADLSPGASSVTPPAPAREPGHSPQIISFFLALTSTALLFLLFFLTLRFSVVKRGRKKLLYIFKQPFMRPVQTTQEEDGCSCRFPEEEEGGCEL

B1: Urelumab (antibody, human IgG4 S228P, kappa)
heavy: not shown
light: not shown
notes: also called Urelumab Analog; copies: 2 + 2
One may read the EC50 as the concentration that produces a half-maximal response. Read a low EC50 as a more potent agent. For the molecule B1, in the assay with human 4-1BB, the EC50 is 0.316 nM.

B2: HER2xHER2x4-1BB-1 (bispecific antibody, human IgG1, kappa)
heavy 1: not shown
light 1: DIQMTQSPSSLSASVGDRVTITCRASQSVQGAVAWYQQKPGKAPKLLIYSASFLYSGVPSRFSGSRSGTDFTLTISSLQPEDFATYYCQQHSTTPPTFGQGTKVEIKRTVAAPSVFIFPPSDEQLKSGRASVVCLLNNFYPREAKVQWKVDNALQSGNSQESVTEQDSKDSTYSLSSRLQLSKADYEKHKVYACEVTHQGLSSPVTKSFNRGEC
heavy 2: not shown
light 2: DIQMTQSPSSLSASVGDRVTITCKASQDVSIGVAWYQQKPGKAPKLLIYSASYRYTGVPSRFSGSGSGTDFTLTISSLQPEDFATYYCQQYYIYPYTFGQGTKVEIKRTVAAPSVFIFPPSDEELKSGTASVQCLLNNFYPREAKVQWKVDNALQSGNSQESVTEQDSKDSTYSLSSELTLSKADYEKHKVYACEVTHQGLSSPVTKSFNRGEC
notes: also called HER2×HER2×4-1BB-1; HER2 × HER2 × 4-1BB-1
On to B2, for which the results for the EC50 in the assay with human FcγRIIb and with human 4-1BB were 1.06 nM and 6.99 nM, respectively.
